Target: the molecule itself
Assay: SEC; […], pH 8.0, 150 mM NaCl; flow rate 0.4 ml/min; […]

B1: ResR/McdR (ResR_(1-225)), 6x His-tagged (natural protein)
chain: MTQLVTRARSARGSTLGEQPRQDQLDFADHTGTAGDGNDGAAAASGPVQPGLFPDDSVPDELVGYRGPSACQIAGITYRQLDYWARTSLVVPSIRSAAGSGSQRLYSFKDILVLKIVKRLLDTGISLHNIRVAVDHLRQRGVQDLANITLFSDGTTVYECTSAEEVVDLLQGGQGVFGIAVSGAMRELTGVIADFHGERADGGESIAAPEDELASRRKHRDRKIG
notes: also called Rv1830; ERDMAN_2020; not shown: His6, N-terminal, kept
binding result: binds
